The experiment addresses BTN3A1 full intracellular domain (BFI) (human). Nature of the experiment: ITC; 300 μM BTN2A1 ID271 titrated into a mixture of 60 μM BTN3A1 BFI and 120 μM 4-M-HMBPP; nanoITC, independent fit (NanoAnalyze).

On to “BTN2A1 intracellular domain (ID271) (domain or fragment)”, for which the KD with 4-M-HMBPP came to 190 µM, the N with 4-M-HMBPP came to 0.08 and the dH with 4-M-HMBPP is -23.9 kcal/mol.

The values above are taken from publication PMC9949253.
